Reference: the NTF2 design screens of Basanta et al. (2020)

Assay: protease stability score; higher = more stable; yeast display proteolysis, trypsin and chymotrypsin;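 further: relative to predicted unfolded state with 0 unfolded-like and 1 meaning tenfold more protease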

Sequence	protease stability score
DEEEHIARHIFEHFITWLLTGDEEVLKDLADPNVRLDINGRHVVGREEFRRWLKEDLEHLRIHDMDLRRVRVQGNKMDLDVQVDGIVNGQHRHHNTRLIFEKVDGRWLLRSIIVK	2.16
DEEEHIERTFKDLFEHALETGDEHLLKRLLDPHARFDINGRDFHGREEVRRFWEETEKKLGIKHSEFRFRRRDHQGDFVRIDLHVIIFIGDKIEHREVEFFLTKIDGVWMIREVRVR	0.613
DEEEHIFQELIELWQTAMATGDEERTDRLLDPNAKIVINGVELHGMDEIKRLLEQMRLHVHDVKIDEIKFQGDYLHIDTTSDIIMRINGREHRIIVKTTVRMLKFDGRWWLHVISIR	1.93
DEEEHIMKHELEKWWETVDTGDEDEMLRLADPNVRVDFNGREFVGREEFLKHVEFMVKEWRLTDRRIEREHVIDGKMIIHMRVHGTFNGKETDTRIEIILHVVDGKVKSEEYRIK	2.06
DEEEHIMRRVTDILVHYIATGDEDSLTRLLDPHARIIIDGRTIHGREWIQHHLRRIDHIHMHSYHIHDIRIQGDKVYADQEIDVEHRVNGVTIRKRFHVNIITVKVNGQWYLHSINNQ	1.45
DEEEHKSKLAVELWHKVEETGDENTMKRLADPNVRIDINGVELHGMEVLVRRLREMGADHFHVDLRRVTVVNGRVHVNTEVIIRQGDKVIILTTRLHIEKVDGRWKITTIEFE	1.32
DEEEHLARKIATIMIHTLITGNEEEMRRLADPTTRFHDEDHTFHGMEEYNRFIKEWRERFPGVKEEWKIRHIHVINGVAHFDIELRIIVGDKEVSDRVEFIIVVVDGRVKSFELRHK	2.15
DEEEHLLRRVSHFWARARKTGNEEVIRDLMDPNMRSTINGVEFHGREEHLHTLREWRVKSVHFEHVHVVDGRIEIKMREDGFVNGRETHFTLRITIVIIDGVVHHISIDLR	0.787
DEEEHLMREALNTFMRTLETGDERQLNELLDPDVRSRVDGQDLHGREHVVRLFEEFRRQARIHHVDVHHMDVIGDWIRVELRVDIRIGDKLYTYKKHIVALKVDGRWFMHRVEIH	0.773
DEEEHLSKEAVRLYIESLHTGDEDLWRSLMDPNARLHINGREFHGMERVLRILREIRIKDTRIRDFHVVNGQVHNRMELEIKVGDKERSFDVELIAYKIDGRWITKSVIHH	1.29
DEEEHNLKKFLEIFLKAERTGDEEALRRMLDPNTKFVVGDKTYHGREEYIRWLNEIRIHRTEDKHIEVQGNKLHMDTRRRMEIDGREIDTEVRLELEVINGVVKLIIVDIR	1.86
DEEEHNSQYAEELHIHLQETGDFEEFKKNVDPHVRLHSEINGKELRLHGRKIAEWLIEFWIKRIPNATIELHDSSIYNGKMHLDQRIKIGDKSMIVIVILEKVNGVWRVREMHITVR	1.37
DEEEHRIIRFIKKVLDDIVTGDWDSFRRNLDPNAKLSAEFEGRREEHVGRDIATRWMREIRIHDMEIKDMRLIDGVNIVKGHFDGRINGQRIRTDTEIWLYVVDGRITSVTIHII	0.776
DEEEHRLRHFSELFTELFKTGDWKTFAKLMDPEVRTHSEWNGQEFSDHGMEAIVHFFKEFVDKFKNLTFHLTRIEVQGDKVHIDTILIFNGKTFTTRLEFIVVNGRIKEVRYHVK	1.13
DEEEHRVENMYHRWLHLWETGNEERLTELLDPNTRIVVGDKQIHGREEAHRVLQEFLKRADHIEEFRIHHLRVVGNKVESDTRLRGEIDGRDIDTRVHVHLLVIDGRLREINIQLE	1.57
DEEEHSAEHAIRILIELLYTGDEDQLERFMDPNTRLHIYFEGHEIHHHGMELISEIFSEIIHRIKNITYRVEDFHLVNGRVHLHGRWNINGKRTKEHWVVLKVDGVWILERVHIHIQ	1.27
DEEEHSLRLALKILIHTRRTGDEHLLTEMADPNTRLDVNGVEVHGMEIFSKLTHEVVKRADHVEVHVKHIDIYGDKIRVHSEINYRQGDKEHSEKVHLVIKKFNGRWILHFVHIG	1.48
DEEEHSYEWAHKVSRHTTETGNEDLSRELADPNVRVIIGDKEYHGWKFMTHLLAHLRIKHIIIRSIRVQGNKLDLNEEVHGEIDGKDETFKLDLVILKVNGRWVIKSVRVE	0.612
DEEEHTAHVAHKLWEDSLHTGNEDNHRKLLDPHARIIVNGRLLHGWEDVEKILKDLGIKVMHMELERIKVVGDKLRIVGHLETRFDGRTIRLREELVVRKFNGRWHIEEINIL	1.24
DEEEHVAWKIMEVFLEDLLTGDEDMLNRMADPHVRVIINGRENHGRESFEEFVRQIRIEDTRLKHVEIRTIGNKIHIYVHGELRLNINGKRIDRKTTWIFVIQKYDGRWILRFILIDIH	2.31
DEEEHWAKEFLKIESEAMMTGDEESLIELIDPDARIQIGDKKYHGMEFVKYLFEQERKKLGIERVHVEFELKEIHYQGNYMIVDGIIRRSYGDKTETRRVIIYLIKFDGQWVIESIQFL	0.863
DEEEHWLKHWTDLHLFARITGDEELLMKMLDPDVRFHIGDKESHGREEVARLLIELWIHNQHVRRRIIVNGVSHIHGELDGEINGVRHRTEIEIHILVIDGRIHEIIIKVH	1.24
DEEEHYLREYLRIVDEELHTGDEKLLAKLLDPEVRVDFNGVVNIGWETVRRHVHHIWMIFRDSKIHDVKVQGDKMIADGRVDVEIIVNGRTHRLELDTNLIFRKVNGRWVMQEIKIG	2.25
DEEEIALKRIVELWLEVIETGDERITEHLLDPRARFEFENHSRHGRKELTRWMTQLGIKYLDLHRMHIRVFDGRLHVHIDGTEIYDGVRRKSEIRMDVLKVDGKWLVEEYSIRFK	1.25
DEEEIEIRRIWERELHWRSTGDEKSLIELMDPRTIIEINGREIHGREEADRHVHEFAEKYKNVRVRYFVREIEVQGEFVHVHTEITLDFDGVEIRFFMILIILKIDGRWLSHRVIVH	0.81
